Results as given in US20220098307A1 (WUHAN YZY BIOPHARMA, published 2022).
Positions count from the first letter of the chain named.

T1: Human BCMA (human, UniProt Q02223 1-54)
T1 sequence: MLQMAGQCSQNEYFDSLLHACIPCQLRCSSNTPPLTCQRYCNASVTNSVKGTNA

B1: M2IC-G2 (bispecific antibody, human IgG1, kappa)
chain: EVKLDETGGGLVQPGRPMKLSCVASGFTFSDYWMNWVRQSPEKGLEWVAQIRNKPYNYETYYSDSVKGRFTISRDDSKSSVYLQMNNLRVEDMGIYYCTGSYYGMDYWGQGTSVTVSSASTKGPSVFPLAPSSKSTSGGTAALGCLVKDYFPEPVTVSWNSGALTSGVHTFPAVLQSSGLYSLSSVVTVPSSSLGTQTYICNVNHKPSNTKVDKKVEPKSCDKTHTGGGSAAAQVQLVESGGGVVQPGRSLRLSCAASGFTFSTYAMNWVRQAPGKGLEWVARIRSKYNNYATYYADSVKDRFTISRDDSKNTLYLQMNSLRAEDTAVYYCARHGNFGNSYVSWFAYWGQGTLVTVSSGGGGSGGGGSGGGGSQTVVTQEPSLTVSPGGTVTLTCRSSTGAVTTSNYANWVQQKPGQAPRGLIGGTNKRAPGVPARFSGSLLGGKAALTLSGVQPEDEAEYYCALWYSNLWVFGGGTKVEIKGGGGSDKTHTCPPCPAPPVAGPSVFLFPPKPKDTLMISRTPEVTCVVVDVSHEDPEVQFNWYVDGVEVHNAKTKPREEQFNSTFRVVSVLTVVHQDWLNGKEYKCKVSNKGLPAPIEKTISKTKGQPREPQVYTLPPCRDELTKNQVSLWCLVKGFYPSDIAVEWESNGQPENNYKTTPPVLDSDGSFFLYSKLTVDKSRWQQGNVFSCSVMHEALHNHYTQKSLSLSPGK
heavy: EVKLDETGGGLVQPGRPMKLSCVASGFTFSDYWMNWVRQSPEKGLEWVAQIRNKPYNYETYYSDSVKGRFTISRDDSKSSVYLQMNNLRVEDMGIYYCTGSYYGMDYWGQGTSVTVSSASTKGPSVFPLAPSSKSTSGGTAALGCLVKDYFPEPVTVSWNSGALTSGVHTFPAVLQSSGLYSLSSVVTVPSSSLGTQTYICNVNHKPSNTKVDKKVEPKSCDKTHTCPPCPAPPVAGPSVFLFPPKPKDTLMISRTPEVTCVVVDVSHEDPEVQFNWYVDGVEVHNAKTKPREEQFNSTFRVVSVLTVVHQDWLNGKEYKCKVSNKGLPAPIEKTISKTKGQPREPQVCTLPPSRDELTKNQVSLSCAVKGFYPSDIAVEWESNGQPENNYKTTPPVLDSDGSFFLVSKLTVDKSRWQQGNVFSCSVMHEALHNRFTQKSLSLSPGK
light: DVVMTQTPLSLPVSLGDQASISCRSSQSLVHSNGNTYLRWYLQKPGQSPKVLIYKVSNRFSGVPDRFSGSGSGTDFTLKISRVEAEDLGVYFCSQSTHVPWTFGGGTKLEIKRTVAAPSVFIFPPSDEQLKSGTASVVCLLNNFYPREAKVQWKVDNALQSGNSQESVTEQDSKDSTYSLSSTLTLSKADYEKHKVYACEVTHQGLSSPVTKSFNRGEC
notes: structure 2 isotype control; CH2 G2CH2
B2: M2IC-DG2 (bispecific antibody, human IgG1, kappa)
chain: B1 chain with D531A
heavy: B1 heavy with D265A
light: B1 light
notes: structure 2 isotype control; CH2 DG2CH2
B3: M2IC-DG2D (bispecific antibody, human IgG1, kappa)
chain: B1 chain with D531A, D536A
heavy: B1 heavy with D265A, D270A
light: B1 light
notes: structure 2 isotype control; CH2 DG2DCH2
B4: M2IC-G2D (bispecific antibody, human IgG1, kappa)
chain: B1 chain with D536A
heavy: B1 heavy with D270A
light: B1 light
notes: structure 2 isotype control; CH2 G2DCH2
B5: M2IC-AG2 (bispecific antibody, human IgG1, kappa)
chain: B1 chain with C496A
heavy: B1 heavy with C230A
light: B1 light
notes: structure 2 isotype control; CH2 AG2CH2
B6: M2IC-GG2 (bispecific antibody, human IgG1, kappa)
chain: B1 chain with C496G
heavy: B1 heavy with C230G
light: B1 light
notes: structure 2 isotype control; CH2 GG2CH2
B7: M2IC-PG2 (bispecific antibody, human IgG1, kappa)
chain: B1 chain with C496P
heavy: B1 heavy with C230P
light: B1 light
notes: structure 2 isotype control; CH2 PG2CH2

Columns and labels:
Human BCMA = target: T1, Human BCMA; experiment: flow cytometry, human tumor cells (table of the BCMA series)
From the text: 1) Cell preparation: T cells isolated from CD3-positive human whole blood were used for a CD3 end affinity detection of multifunctional antibody molecule; positive tumor cells of corresponding antigen were used for detecting affinity of tumor antigen; for example, CD38-positive MM. 1S cells (purchased from the Cell Resource Center of Shanghai Institutes for Biological Sciences, Chinese Academy of Sciences) or RPMI 8226 cells (purchased from the Cell Resource Center of Shanghai Institutes for Biological Sciences, Chinese Academy of Sciences) were used for CD38 antigen detection, and PD-L1 positive H358 cells (purchased from the Cell Resource Center of Shanghai Institutes for Biological Sciences, Chinese Academy of Sciences) were used for PD-L1 antigen detection, and so on. The cells were resuspended with 1% FBS-PBS, adjusted to a density of 4×10⁶/ml, and 50 μl of cells were taken from each well, and then plated at 2×10⁵ per well. Cell plating was operated on ice
2) Addition of the antibody: according to the experimental design, the antibody was diluted gradually, and dilution of antibody was operated on ice. For example, the initial concentration of antibody for dilution was 3000 nM, and the antibody was diluted by 3 times with 11 concentration gradients. The diluted antibody was added to a cell well at 50 μl per well, mixed well, and shaked and incubated at 4° C. 1100 rpm/min for 2 h; after washing, the cells were resuspend in 1% FBS-PBS, and a diluted secondary antibody PE anti-human IgG FC (Biolegend, 409304) was added with a final concentration of 8 ug/ml and a volume of 50 μl/well. At the same time, a well only added with cells and secondary antibody was set as a control, the components were mixed well, and incubated under shaking at 1100 rpm/min at 4° C. for 1 h;
5) Data analysis: the data was analyzed by a flow analysis software FlowJo 7.6 thereby obtaining an average fluorescence intensity of the specific antibody concentration, plotted by a Graphpad Prism 5 with the antibody concentration (nM) as an abscissa and the average fluorescence intensity as an ordinate; the EC50 value was calculated by the method of One site—Specific binding, and the EC50 value indicated the cell affinity of the antibody to the corresponding target antigen.

Human CD3ε = target: T2, Human CD3ε (human, UniProt P07766 23-126); experiment: flow cytometry, human T cells
T2 construct: CD3 on T cells isolated from human whole blood
Procedure, shortened: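 For cell-surface binding, T cells served for the CD3 arm and antigen-positive tumor cells (e.g. MM.1S or RPMI 8226 for CD38) for the tumor arm.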

Monkey CD3 = target: T3, Monkey CD3 (monkey); experiment: flow cytometry, monkey T cells
T3 construct: whole, on cells; also called CD3 of monkey CD3 positive T cells

Binder	binding result (Human BCMA)	EC50 (Human CD3ε)	EC50 (Monkey CD3)
B1	no binding	408 nM	488 nM
B2	no binding	357 nM	570 nM
B3	no binding	452 nM	519 nM
B4	no binding	367 nM	538 nM
B5	no binding	535 nM	607 nM
B6	no binding	556 nM	538 nM
B7	no binding	467 nM	656 nM
